# Article PMC9352680, “A comprehensive thermodynamic model for RNA binding by the Saccharomyces cerevisiae Pumilio protein PUF4”
# Positions count from the first letter of the chain named. Names and notes keep the numbering of the source.
# T1: PUF4 RNA-binding domain (Saccharomyces cerevisiae, UniProt P25339 537-888)
# T1 sequence: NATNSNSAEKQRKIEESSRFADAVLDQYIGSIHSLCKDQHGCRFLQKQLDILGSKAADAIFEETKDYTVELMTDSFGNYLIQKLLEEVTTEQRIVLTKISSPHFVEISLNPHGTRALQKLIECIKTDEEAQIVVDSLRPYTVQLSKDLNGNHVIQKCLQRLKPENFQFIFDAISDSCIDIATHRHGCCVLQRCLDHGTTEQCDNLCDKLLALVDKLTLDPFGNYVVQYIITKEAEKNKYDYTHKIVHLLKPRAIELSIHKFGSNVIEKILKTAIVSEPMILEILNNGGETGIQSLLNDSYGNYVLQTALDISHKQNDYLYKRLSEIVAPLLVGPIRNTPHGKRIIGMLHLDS
# B1: Id_ii_S2_P4E.2_K4.1_C4.2_[T-1G]_H4.1_A4.1_F4.1_T4.2_[G10A]_[T11A] (ssRNA)
# RNA: UUUGAUUAAUAUGAUAUCGUUCUUUCUCGUGUAUAUUAAAUUCUUUCUCGAUAUCAUAUUAAUCUUU
# B2: Id_ii_S2_P4E.3_K4.2_C4.2_[C-2T]_[T-1C]_H4.2_A4.1_F4.1_T4.2_[G10C] (ssRNA)
# RNA: B1 RNA with C28U, G29C, G31A, A39C, A40U
# B3: Id_ii_S2_P4E.3_K4.2_C4.2_[C-2T]_[T-1C]_H4.2_A4.1_F4.1_T4.2_[G10A]_[T11C] (ssRNA)
# RNA: B1 RNA with C28U, G29C, G31A, A40C
# B4: Id_ii_S2_P4E.3_K4.2_C4.2_[C-2T]_[T-1C]_H4.2_A4.1_F4.1_T4.2_[G10C]_[T11C] (ssRNA)
# RNA: B1 RNA with C28U, G29C, G31A, A39C, A40C
# B5: Id_ii_S2_P4E.2_K4.1_C4.2_H4.1_A4.1_F4.1_T4.2_[G10A]_[T11C] (ssRNA)
# RNA: B1 RNA with G29U, A40C
# B6: Id_ii_S2_P4E.3_K4.2_C4.2_[C-2G]_H4.2_A4.1_F4.1_T4.2_[G10T]_[T11A] (ssRNA)
# RNA: B1 RNA with C28G, G29U, G31A, A39U
# B7: Id_ii_S2_P4E.2_K4.1_C4.2_[T-1A]_H4.1_A4.1_F4.1_T4.2 (ssRNA)
# RNA: B1 RNA with G29A, A39G, A40U
# B8: Id_ii_S2_P4E.3_K4.2_C4.2_[C-2G]_[T-1C]_H4.2_A4.1_F4.1_T4.2_[G10C]_[T11A] (ssRNA)
# RNA: B1 RNA with C28G, G29C, G31A, A39C
# B9: Id_ii_S2_P4E.3_K4.2_C4.2_[C-2G]_[T-1C]_H4.2_A4.1_F4.1_T4.2_[G10A] (ssRNA)
# RNA: B1 RNA with C28G, G29C, G31A, A40U
# B10: Id_ii_S2_P4E.3_K4.2_C4.2_[C-2T]_[T-1G]_H4.2_A4.1_F4.1_T4.2_[G10A]_[T11A] (ssRNA)
# RNA: B1 RNA with C28U, G31A
# B11: Id_ii_S2_P4E.3_K4.2_C4.2_[C-2G]_H4.2_A4.1_F4.1_T4.2_[G10T]_[T11G] (ssRNA)
# RNA: B1 RNA with C28G, G29U, G31A, A39U, A40G
# B12: Id_ii_S2_P4E.3_K4.2_C4.2_[C-2T]_[T-1G]_H4.2_A4.1_F4.1_T4.2_[G10T]_[T11G] (ssRNA)
# RNA: B1 RNA with C28U, G31A, A39U, A40G
# B13: Id_ii_S2_P4E.3_K4.2_C4.2_[C-2T]_[T-1C]_H4.2_A4.1_F4.1_T4.2_[G10T]_[T11C] (ssRNA)
# RNA: B1 RNA with C28U, G29C, G31A, A39U, A40C
# B14: Id_ii_S2_P4E.2_K4.1_C4.2_H4.1_A4.1_F4.1_T4.2_[G10A] (ssRNA)
# RNA: B1 RNA with G29U, A40U
# B15: Id_ii_S2_P4E.2_K4.1_C4.2_H4.1_A4.1_F4.1_T4.2_[G10A]_[T11A] (ssRNA)
# RNA: B1 RNA with G29U
# B16: Ie_S2_P3E.2_K3.1_C3.2_H3.1_A3.1_F3.1_[+7T]_T3.2 (ssRNA)
# RNA: B1 RNA with G29U, A39U
# B17: Id_ii_S2_P4E.3_K4.2_C4.2_[C-2G]_H4.2_A4.1_F4.1_T4.2_[G10C] (ssRNA)
# RNA: B1 RNA with C28G, G29U, G31A, A39C, A40U
# B18: Id_ii_S2_P4E.3_K4.2_C4.2_[C-2T]_[T-1C]_H4.2_A4.1_F4.1_T4.2_[G10C]_[T11A] (ssRNA)
# RNA: B1 RNA with C28U, G29C, G31A, A39C
# B19: Id_ii_S2_P4E.3_K4.2_C4.2_[C-2T]_[T-1C]_H4.2_A4.1_F4.1_T4.2_[G10A]_[T11A] (ssRNA)
# RNA: B1 RNA with C28U, G29C, G31A
# B20: Id_ii_S2_P4E.3_K4.2_C4.2_[C-2G]_H4.2_A4.1_F4.1_T4.2_[G10T] (ssRNA)
# RNA: B1 RNA with C28G, G29U, G31A, A39U, A40U
# B21: Id_ii_S2_P4E.2_K4.1_C4.2_[T-1A]_H4.1_A4.1_F4.1_T4.2_[G10C]_[T11C] (ssRNA)
# RNA: B1 RNA with G29A, A39C, A40C
# B22: Id_ii_S2_P4E.2_K4.1_C4.2_[T-1C]_H4.1_A4.1_F4.1_T4.2_[G10A]_[T11A] (ssRNA)
# RNA: B1 RNA with G29C
# B23: Id_ii_S2_P4E.2_K4.1_C4.2_[T-1A]_H4.1_A4.1_F4.1_T4.2_[G10A]_[T11G] (ssRNA)
# RNA: B1 RNA with G29A, A40G
# B24: Id_ii_S2_P4E.2_K4.1_C4.2_[T-1A]_H4.1_A4.1_F4.1_T4.2_[G10A] (ssRNA)
# RNA: B1 RNA with G29A, A40U
# B25: Id_ii_S2_P4E.2_K4.1_C4.2_[T-1C]_H4.1_A4.1_F4.1_T4.2_[G10T] (ssRNA)
# RNA: B1 RNA with G29C, A39U, A40U
# B26: Id_ii_S2_P4E.3_K4.2_C4.2_[C-2G]_[T-1C]_H4.2_A4.1_F4.1_T4.2_[G10T]_[T11G] (ssRNA)
# RNA: B1 RNA with C28G, G29C, G31A, A39U, A40G
# B27: Id_ii_S2_P4E.2_K4.1_C4.2_[T-1G]_H4.1_A4.1_F4.1_T4.2_[G10A] (ssRNA)
# RNA: B1 RNA with A40U
# B28: Id_ii_S2_P4E.2_K4.1_C4.2_[T-1C]_H4.1_A4.1_F4.1_T4.2_[G10A]_[T11G] (ssRNA)
# RNA: B1 RNA with G29C, A40G
# B29: Id_ii_S2_P4E.2_K4.1_C4.2_[T-1G]_H4.1_A4.1_F4.1_T4.2 (ssRNA)
# RNA: B1 RNA with A39G, A40U
# B30: Id_ii_S2_P4E.2_K4.1_C4.2_[T-1C]_H4.1_A4.1_F4.1_T4.2_[G10T]_[T11A] (ssRNA)
# RNA: B1 RNA with G29C, A39U
# B31: Id_ii_S2_P4E.3_K4.2_C4.2_[C-2G]_[T-1C]_H4.2_A4.1_F4.1_T4.2_[G10C]_[T11C] (ssRNA)
# RNA: B1 RNA with C28G, G29C, G31A, A39C, A40C
# B32: Id_ii_S2_P4E.2_K4.1_C4.2_[T-1C]_H4.1_A4.1_F4.1_T4.2 (ssRNA)
# RNA: B1 RNA with G29C, A39G, A40U
# B33: Id_ii_S2_P4E.2_K4.1_C4.2_[T-1A]_H4.1_A4.1_F4.1_T4.2_[G10C] (ssRNA)
# RNA: B1 RNA with G29A, A39C, A40U
# B34: Id_ii_S2_P4E.3_K4.2_C4.2_[C-2T]_[T-1G]_H4.2_A4.1_F4.1_T4.2_[G10A]_[T11C] (ssRNA)
# RNA: B1 RNA with C28U, G31A, A40C
# B35: Id_ii_S2_P4E.3_K4.2_C4.2_[C-2T]_[T-1C]_H4.2_A4.1_F4.1_T4.2_[G10T]_[T11A] (ssRNA)
# RNA: B1 RNA with C28U, G29C, G31A, A39U
# B36: Id_ii_S2_P4E.3_K4.2_C4.2_[C-2G]_H4.2_A4.1_F4.1_T4.2_[G10A]_[T11A] (ssRNA)
# RNA: B1 RNA with C28G, G29U, G31A
# B37: Id_ii_S2_P4E.3_K4.2_C4.2_[C-2T]_[T-1C]_H4.2_A4.1_F4.1_T4.2_[G10C]_[T11G] (ssRNA)
# RNA: B1 RNA with C28U, G29C, G31A, A39C, A40G
# B38: Id_ii_S2_P4E.3_K4.2_C4.2_[C-2G]_[T-1C]_H4.2_A4.1_F4.1_T4.2_[G10A]_[T11C] (ssRNA)
# RNA: B1 RNA with C28G, G29C, G31A, A40C
# B39: Id_ii_S2_P4E.2_K4.1_C4.2_H4.1_A4.1_F4.1_T4.2_[G10C]_[T11C] (ssRNA)
# RNA: B1 RNA with G29U, A39C, A40C
# B40: Id_ii_S2_P4E.2_K4.1_C4.2_H4.1_A4.1_F4.1_T4.2_[G10C] (ssRNA)
# RNA: B1 RNA with G29U, A39C, A40U
# B41: Id_ii_S2_P4E.3_K4.2_C4.2_[C-2T]_[T-1G]_H4.2_A4.1_F4.1_T4.2 (ssRNA)
# RNA: B1 RNA with C28U, G31A, A39G, A40U
# B42: Id_ii_S2_P4E.3_K4.2_C4.2_[C-2G]_[T-1C]_H4.2_A4.1_F4.1_T4.2_[G10C]_[T11G] (ssRNA)
# RNA: B1 RNA with C28G, G29C, G31A, A39C, A40G
# B43: Id_ii_S2_P4E.3_K4.2_C4.2_[C-2G]_[T-1G]_H4.2_A4.1_F4.1_T4.2_[G10A] (ssRNA)
# RNA: B1 RNA with C28G, G31A, A40U
# B44: Id_ii_S2_P4E.2_K4.1_C4.2_[T-1A]_H4.1_A4.1_F4.1_T4.2_[G10A]_[T11A] (ssRNA)
# RNA: B1 RNA with G29A
# B45: Id_ii_S2_P4E.3_K4.2_C4.2_[C-2G]_[T-1C]_H4.2_A4.1_F4.1_T4.2_[G10T]_[T11C] (ssRNA)
# RNA: B1 RNA with C28G, G29C, G31A, A39U, A40C
# B46: Id_ii_S2_P4E.2_K4.1_C4.2_H4.1_A4.1_F4.1_T4.2_[T11C] (ssRNA)
# RNA: B1 RNA with G29U, A39G, A40C
# B47: Id_ii_S2_P4E.2_K4.1_C4.2_[T-1C]_H4.1_A4.1_F4.1_T4.2_[G10C] (ssRNA)
# RNA: B1 RNA with G29C, A39C, A40U
# Molecular target: T1, PUF4 RNA-binding domain
# Experiment: Mg; RNA-MaP; 20 mM Na-HEPES pH 7.4, 30 mM KOAc, 0.75 mM MgCl2, 0.1% Tween-20, 5% glycerol, 0.1 mg/mL BSA, 2 mM DTT; 25 C; 0.0125-409.6 nM protein
# Conditions: tags: N-His6-TEV cleaved; C-SNAP kept, Cy3B-labelled; label: tethered on chip by stalled RNA polymerase
row,Binder,Kd
1,UCUCUUUUUAUUAUUUUCUCUU (ssRNA) [Ib_S1_P5E.1_K5.1_C5.1_H5.1_[G2T]_A5.1_F5.1_[A10T]_T5.1],> 2300 nM
2,UCUCUUUAUAUUAUUUUCUCUU (ssRNA) [Ib_S1_P5E.1_K5.1_C5.1_H5.1_[G2A]_A5.1_F5.1_[A10T]_T5.1],473 nM
3,UCUCUUUAUAUUAUUAUCUCUU (ssRNA) [Ia_S1_P5E.1_K5.1_C5.1_H5.1_[G2A]_A5.1_F5.1_T5.1],367 nM
4,B1,0.489 nM
5,B2,6.91 nM
6,B3,8.95 nM
7,B4,8.5 nM
8,B5,0.566 nM
9,B6,53.5 nM
10,B7,0.425 nM
11,B8,56.6 nM
12,B9,16.7 nM
13,B10,2.31 nM
14,B11,11.2 nM
15,B12,2.66 nM
16,B13,7 nM
17,B14,0.317 nM
18,B15,0.537 nM
19,B16,0.308 nM
20,B17,26.9 nM
21,B18,11.5 nM
22,B19,18.5 nM
23,B20,7.68 nM
24,B21,0.746 nM
25,B22,0.324 nM
26,B23,2.6 nM
27,B24,0.506 nM

row,Binder,Kd
1,B25,0.15 nM
2,B26,29.1 nM
3,B27,0.316 nM
4,B28,1.63 nM
5,B29,0.296 nM
6,B30,0.342 nM
7,B31,23.6 nM
8,B32,0.166 nM
9,B33,0.716 nM
10,B34,4.44 nM
11,B35,13.5 nM
12,B36,13.7 nM
13,B37,8.91 nM
14,B38,57.7 nM
15,B39,0.362 nM
16,B40,0.572 nM
17,B41,1.86 nM
18,B42,37.1 nM
19,B43,57 nM
20,B44,0.937 nM
21,B45,22.4 nM
22,B46,0.275 nM
23,B47,0.482 nM
24,UCUCUUUAUAUUAUUGUCUCUU (ssRNA) [Ib_S1_P5E.1_K5.1_C5.1_H5.1_[G2A]_A5.1_F5.1_[A10G]_T5.1],242 nM
25,UCUCUUUCUAUUAUUGUCUCUU (ssRNA) [Ib_S1_P5E.1_K5.1_C5.1_H5.1_[G2C]_A5.1_F5.1_[A10G]_T5.1],> 2300 nM
26,UCUCUUUAUAUUAUUCUCUCUU (ssRNA) [Ib_S1_P5E.1_K5.1_C5.1_H5.1_[G2A]_A5.1_F5.1_[A10C]_T5.1],462 nM
